Results from the supplement of paper PMC12667976.
± gives the standard error.

B1: library; numbered along this chain (parent)
chain: MATDAALRRLLRLHRTEIAVAVDSAFPLLHALADHDVVPEDKFQETLHLKEKEGCPQAFHALLSWLLTQDSTAILDFWRVLFKDYNLERYGRLQPILDSFPKDVDLSQPRKGRKPPAVPKALVPPPRLPTKRKASEEARAAAPAALTPRGTASPGSQLKAKPPKKPESSAEQQRLPLGNGIQTMSASVQRAVAMSSGDVPGARGAVEGILIQQVFESGGSKKCIQVGGEFYTPSKFEDSGSGKNKARSSSGPKPLVRAKGAQGAAPGGGEARLGQQGSVPAPLALPSDPQLHQKNEDECAVCRDGGELICCDGCPRAFHLACLSPPLREIPSGTWRCSSCLQATVQEVQPRAEEPRPQEPPVETPLPPGLRSAGEEVRGPPGEPLAGMDTTLVYKHLPAPPSAAPLPGLDSSALHPLLCVGPEGQQNLAPGARCGVCGDGTDVLRCTHCAAAFHWRCHFPAGTSRPGTGLRCRSCSGDVTPAPVEGVLAPSPARLAPGPAKDDTASHEPALHRDDLESLLSEHTFDGILQWAIQSMARPAAPFPS

Variants of: B1
Experiment: AIRE transcriptional activation functional score (insulin promoter-GFP; nonsense median 0, synonymous median 1) (normalised score); higher = higher AIRE activity (more reporter activation)
Conditions: with insulin promoter-GFP reporter in HEK293
Method: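 Deep mutational scan of full-length human AIRE (codon-optimized cDNA, DT-POPCode NNN libraries over three regions) integrated at a Bxb1 landing pad in HEK293 cells carrying an insulin core promoter-GFP reporter at a Flp-In site. Cells were sorted for the top 10% GFP about 14 days after transfection. Variant frequency log-ratios (select vs non-select, TileSeq) were rescaled so that the nonsense median is 0 and the synonymous median is 1, then averaged over biological replicates.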

AIRE transcriptional activation functional score: each site, then its substitutions
P115: Q 1.01 ± 0.35, W 0.278 ± 0.1, V 1.21 ± 0.51, K -0.166 ± 0.74, Y 0.917 ± 0.29, F 1.5 ± 0.58, M 0.979 ± 0.15, H 1.03 ± 0.71, N 1.02 ± 0.11, G 0.828 ± 0.45, I 0.466 ± 0.77, T 0.525 ± 0.52, S 1.58 ± 0.71, L 1.2 ± 0.48, R 0.784 ± 0.41
K120: E 0.943 ± 0.27, Q 0.232 ± 0.33, L 1.13 ± 0.29, W 1.43 ± 0.041, Y 1.34 ± 0.37, P 1.21 ± 0.39, F 0.998 ± 0.34, H 0.932 ± 0.7, D 0.677 ± 0.3, T 1.79 ± 0.48, G 1.12 ± 0.34, N 1.29 ± 0.21, M 1.31 ± 0.077, S 1.21 ± 0.44, C 1.2 ± 0.21, I 1.2 ± 0.15, A 0.814 ± 0.64, R 1.21 ± 0.41, V 1.01 ± 0.28
P124: A 0.614 ± 0.46
V123: Y 1.43 ± 0.12, L 1.28 ± 0.27, D 1.11 ± 0.33, T 0.905 ± 0.51, R 0.872 ± 0.33, N 1.03 ± 0.1, K 1.26 ± 0.2, G 1.3 ± 0.27, C 1.27 ± 0.17, M 1.72 ± 0.061, Q 1.31 ± 0.14, H 1.19 ± 0.59, S 0.751 ± 0.44, I 1.17 ± 0.21, E 0.862 ± 0.25, F 1.33 ± 0.095, P 0.742 ± 0.58, A 0.886 ± 0.47
V118: W 1.13 ± 0.21, C 1.25 ± 0.13, S 0.863 ± 0.49, H 1.74 ± 0.26, M 1.31 ± 0.18, A 1.02 ± 0.72, Y 1.42 ± 0.34, G 0.911 ± 0.38, N 0.783 ± 0.28, E 1.08 ± 0.27, T 0.667 ± 0.45, I 1.01 ± 0.14, F 1.01 ± 0.24, L 0.953 ± 0.44, K 0.143 ± 0.23, Q 0.675 ± 0.51, P 1.47 ± 0.62, D 0.403 ± 0.48, R 0.372 ± 0.4
L122: W 0.871 ± 0.048, T 0.686 ± 0.11, K 0.401 ± 0.17, H 0.431 ± 0.75, C 1.17 ± 0.21, G 1.29 ± 0.35, M 1.1 ± 0.05, R 0.83 ± 0.43, S 1.44 ± 0.47, Y 1.45 ± 0.31, A 0.747 ± 0.24, D 1.44 ± 0.14, V 0.859 ± 0.41, E 0.827 ± 0.24, F 1.32 ± 0.15, Q 0.272 ± 0.36, I 0.612 ± 0.24, P 0.586 ± 0.2, N 0.335 ± 0.67
A117: R 0.501 ± 0.51, Q 1.44 ± 1, M 0.838 ± 0.066, D 0.179 ± 0.29, N 0.792 ± 0.33, L 1.13 ± 0.4, I 0.777 ± 0.28, T 1.16 ± 0.36, S 0.692 ± 0.59, C 1.1 ± 0.64, K 0.457 ± 0.24, W 1.4 ± 0.096, F 1.04 ± 0.38, H 1.22 ± 0.48, E 1.03 ± 0.14, G 1.22 ± 0.26, Y 1.76 ± 0.24, V 0.34 ± 0.65, P 0.913 ± 0.48
A121: Q 0.141 ± 0.53, T 0.322 ± 0.49, Y 1.59 ± 0.18, C 1.3 ± 0.16, R 0.922 ± 0.42, N 1.1 ± 0.17, S 1.28 ± 0.72, L 1.09 ± 0.22, D 0.847 ± 0.36, V 0.67 ± 0.31, H 0.141 ± 0.31, K 1.21 ± 0.12, E 1.35 ± 0.18, G 1.4 ± 0.15, M 1.2 ± 0.16, F 1.22 ± 0.13, P 0.967 ± 0.48, W 1.54 ± 0.14, I 0.906 ± 0.4
P119: F 1.39 ± 0.14, M 0.545 ± 0.12, D 0.86 ± 0.28, E 1.37 ± 0.17, N 1.04 ± 0.46, T 1.59 ± 0.55, L 0.904 ± 0.3, A 1.03 ± 0.56, V 0.878 ± 0.6, G 0.741 ± 0.48, C 1.04 ± 0.56, Y 1.63 ± 0.1, K 1.36 ± 0.051, S 0.765 ± 0.48, I 1.52 ± 0.17, Q 1.02 ± 0.37, H 1.17 ± 0.41, R 0.495 ± 0.34, W 1.58 ± 0.045
P116: T 0.481 ± 0.99, Y 1.17 ± 0.12, I 1.36 ± 0.24, L 1.07 ± 0.43, C 1.36 ± 0.37, V 0.906 ± 0.43, M 1.1 ± 0.35, F 1.18 ± 0.075, G 0.577 ± 0.51, R 0.38 ± 0.45, N 2.06 ± 0.3, A 0.756 ± 0.5, W 1.13 ± 0.19, E 0.895 ± 0.69, Q 1.41 ± 0.49, K 0.772 ± 0.26, D 0.468 ± 0.33, S 1.12 ± 0.27, H 1.15 ± 0.41
